Values of other authors in PMC8268101.

Target: C1q (Homo sapiens) (UniProt P02745)
Test: SPR

Sequence of UniProt P02745 (P02745 23-245, chain 1 of 3): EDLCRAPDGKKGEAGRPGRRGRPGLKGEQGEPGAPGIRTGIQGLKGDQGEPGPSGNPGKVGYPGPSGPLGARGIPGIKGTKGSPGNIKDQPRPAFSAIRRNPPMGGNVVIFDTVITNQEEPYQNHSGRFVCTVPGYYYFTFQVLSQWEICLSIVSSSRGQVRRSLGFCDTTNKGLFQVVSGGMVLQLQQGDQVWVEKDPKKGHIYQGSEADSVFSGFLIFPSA
Sequence of UniProt P02745 (P02746 28-253, chain 2 of 3, further chain): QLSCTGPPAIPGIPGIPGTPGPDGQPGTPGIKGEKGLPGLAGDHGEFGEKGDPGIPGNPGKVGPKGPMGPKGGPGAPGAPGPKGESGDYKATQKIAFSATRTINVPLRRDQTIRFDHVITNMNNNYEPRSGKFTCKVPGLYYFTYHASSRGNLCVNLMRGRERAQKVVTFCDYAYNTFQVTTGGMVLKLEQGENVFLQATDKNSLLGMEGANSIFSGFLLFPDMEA
Sequence of UniProt P02745 (P02747 29-245, chain 3 of 3, further chain): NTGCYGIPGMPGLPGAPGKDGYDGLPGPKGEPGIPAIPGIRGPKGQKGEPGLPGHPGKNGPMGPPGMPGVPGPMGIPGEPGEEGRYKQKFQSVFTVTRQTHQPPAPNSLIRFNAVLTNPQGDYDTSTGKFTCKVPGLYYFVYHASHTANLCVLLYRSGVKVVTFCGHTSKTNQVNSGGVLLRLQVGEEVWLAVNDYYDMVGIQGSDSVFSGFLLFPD

RAGE (from UniProt Q15109)
Kd: 5.6 µM
